Laboratory results published in patent US7741124B2, “Detection procedures for fibrinogen and/or fibrinogen derivatives” (priority 2003, dated 2010).

Tested on: vancomycin
Assay: Vancomycin-reactivity with fibrinogen split products (t-PA incubated plasma) or BrCN-cleaved fibrinogen
Type: biochemical
Settings: 50 μl 1000 IU/ml t-PA
Description: 25 μl P-Pool were incubated with 25 μl 0 mM or 15 mM CT in PBS for 60 min (RT). Then 50 μl 1000 IU/ml t-PA, 0.1% Triton X 100® in PBS were added. […] In addition, 10 mg/ml BrCN-cleaved fibrinogen in 6% BSA-PBS or in pooled serum were assayed in the FIATA.

B1: t-PA: t-PA, 1000 IU/ml in PBS, 0.1% Triton X 100 (protein, UniProt P00750 36-562, looked up)
Tissue-type plasminogen …: SYQVICRDEKTQMIYQQHQSWLRPVLRSNRVEYCWCNSGRAQCHSVPVKSCSEPRCFNGGTCQQALYFSDFVCQCPEGFAGKCCEIDTRATCYEDQGISYRGTWSTAESGAECTNWNSSALAQKPYSGRRPDAIRLGLGNHNYCRNPDRDSKPWCYVFKAGKYSSEFCSTPACSEGNSDCYFGNGSAYRGTHSLTESGASCLPWNSMILIGKVYTAQNPSAQALGLGKHNYCRNPDGDAKPWCHVLKNRRLTWEYCDVPSCSTCGLRQYSQPQFRIKGGLFADIASHPWQAAIFAKHRRSPGERFLCGGILISSCWILSAAHCFQERFPPHHLTVILGRTYRVVPGEEEQKFEVEKYIVHKEFDDDTYDNDIALLQLKSDSSRCAQESSVVRTVCLPPADLQLPDWTECELSGYGKHEALSPFYSERLKEAHVRLYPSSRCTSQHLLNRTVTDNMLCAGDTRSGGPQANLHDACQGDSGGPLVCLNDGRMTLVGIISWGLGCGQKDVPGVYTKVTNYLDWIRDNMRP
time for 50% loss of vancomycin reactivity (15 mM CT-oxidized plasma): about 1 h | incubation time for complete loss of vancomycin reactivity (25 μl 15 mM CT-oxidized citrated plasma): 3 h | time for 50% loss of vancomycin reactivity (unoxidized plasma): 6 h
